According to patent US20260167699A1 (Chugai, published 2026):
Positions count from the first letter of the chain named.

T1: FcγRIIb extracellular domain with C-terminal His tag (human, UniProt P31994 43-217)
T1 construct: extracellular domain; also called 2b; CD32
T1 sequence: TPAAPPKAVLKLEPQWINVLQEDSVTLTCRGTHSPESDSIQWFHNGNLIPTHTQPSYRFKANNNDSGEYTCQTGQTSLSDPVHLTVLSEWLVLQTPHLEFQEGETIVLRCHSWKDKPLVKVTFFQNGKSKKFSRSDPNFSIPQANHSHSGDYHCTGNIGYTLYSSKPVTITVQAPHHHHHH

T2: FcγRIIa(H) extracellular domain with C-terminal His tag (human, UniProt P12318 34-217)
T2 construct: extracellular domain; H131 allotype; also called 2aH; CD32
T2 sequence: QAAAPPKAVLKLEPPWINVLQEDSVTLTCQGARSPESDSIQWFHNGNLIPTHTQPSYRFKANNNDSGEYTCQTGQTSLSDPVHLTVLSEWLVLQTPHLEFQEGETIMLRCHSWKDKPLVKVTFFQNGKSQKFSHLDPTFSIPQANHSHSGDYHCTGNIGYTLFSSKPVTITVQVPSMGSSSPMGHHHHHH

T3: FcγRIIa(R) extracellular domain with C-terminal His tag (human, UniProt P12318 34-217)
T3 construct: extracellular domain; R131 allotype; also called 2aR; CD32
T3 sequence: T2 sequence with H134R

B1: GpH7-A5/GpH7-B3 variant K334_18N/GpL16-k0 (antibody, human IgG1, kappa)
heavy 1: not shown
heavy 2: not shown
light: DIVMTQSPLSLPVTPGEPASISCQASESLVHSNRNTYLHWYLQKPGQSPQLLIYKVSNRFSGVPDRFSGSGSGTDFTLKISRVEAEDVGVYYCSQNTHVPPTFGQGTKVEIERTVAAPSVFIFPPSDEQLKSGTASVVCLLNNFYPREAKVQWKVDNALQSGNSQESVTEQDSKDSTYSLSSTLTLSKADYEKHKVYACEVTHQGLSSPVTKSFNRGEC
notes: heterodimerized IgG1 (He Ab), mutation in one H chain only; also called He Ab
B2: GpH7-A5/GpH7-B3 variant S337_06M/GpL16-k0 (antibody, human IgG1, kappa)
heavy 1: not shown
heavy 2: not shown
light: B1 light
notes: as for B1
B3: GpH7-A5/GpH7-B3 variant P331_08L/GpL16-k0 (antibody, human IgG1, kappa)
heavy 1: not shown
heavy 2: not shown
light: B1 light
notes: as for B1
B4: GpH7-A5/GpH7-B3 variant P331_13S/GpL16-k0 (antibody, human IgG1, kappa)
heavy 1: not shown
heavy 2: not shown
light: B1 light
notes: as for B1
B5: GpH7-A5/GpH7-B3 variant S337_04F/GpL16-k0 (antibody, human IgG1, kappa)
heavy 1: not shown
heavy 2: not shown
light: B1 light
notes: as for B1
B6: GpH7-A5/GpH7-B3 variant P331_19Q/GpL16-k0 (antibody, human IgG1, kappa)
heavy 1: not shown
heavy 2: not shown
light: B1 light
notes: as for B1
B7: GpH7-A5/GpH7-B3 variant P331_14T/GpL16-k0 (antibody, human IgG1, kappa)
heavy 1: not shown
heavy 2: not shown
light: B1 light
notes: as for B1
B8: GpH7-A5/GpH7-B3 variant S337_10E/GpL16-k0 (antibody, human IgG1, kappa)
heavy 1: not shown
heavy 2: not shown
light: B1 light
notes: as for B1
B9: GpH7-A5/GpH7-B3 variant P331_20W/GpL16-k0 (antibody, human IgG1, kappa)
heavy 1: not shown
heavy 2: not shown
light: B1 light
notes: as for B1
B10: GpH7-A5/GpH7-B3 variant P331_06M/GpL16-k0 (antibody, human IgG1, kappa)
heavy 1: not shown
heavy 2: not shown
light: B1 light
notes: as for B1
B11: GpH7-A5/GpH7-B3 variant P331_09D/GpL16-k0 (antibody, human IgG1, kappa)
heavy 1: not shown
heavy 2: not shown
light: B1 light
notes: as for B1
B12: GpH7-A5/GpH7-B3 variant S337_09D/GpL16-k0 (antibody, human IgG1, kappa)
heavy 1: not shown
heavy 2: not shown
light: B1 light
notes: as for B1
B13: GpH7-A5/GpH7-B3 variant S337_18N/GpL16-k0 (antibody, human IgG1, kappa)
heavy 1: not shown
heavy 2: not shown
light: B1 light
notes: as for B1
B14: GpH7-A5/GpH7-B3 variant P331_04F/GpL16-k0 (antibody, human IgG1, kappa)
heavy 1: not shown
heavy 2: not shown
light: B1 light
notes: as for B1
B15: GpH7-A5/GpH7-B3 variant K334_19Q/GpL16-k0 (antibody, human IgG1, kappa)
heavy 1: not shown
heavy 2: not shown
light: B1 light
notes: as for B1
B16: GpH7-A5/GpH7-B3 variant P331_18N/GpL16-k0 (antibody, human IgG1, kappa)
heavy 1: not shown
heavy 2: not shown
light: B1 light
notes: as for B1
B17: GpH7-A5/GpH7-B3 variant K334_20W/GpL16-k0 (antibody, human IgG1, kappa)
heavy 1: not shown
heavy 2: not shown
light: B1 light
notes: as for B1
B18: GpH7-A5/GpH7-B3 variant P331_15Y/GpL16-k0 (antibody, human IgG1, kappa)
heavy 1: not shown
heavy 2: not shown
light: B1 light
notes: as for B1
B19: GpH7-A5/GpH7-B3 variant P331_16H/GpL16-k0 (antibody, human IgG1, kappa)
heavy 1: not shown
heavy 2: not shown
light: B1 light
notes: as for B1
B20: GpH7-A5/GpH7-B3 variant P331_11K/GpL16-k0 (antibody, human IgG1, kappa)
heavy 1: not shown
heavy 2: not shown
light: B1 light
notes: as for B1
B21: GpH7-A5/GpH7-B3 variant P331_02A/GpL16-k0 (antibody, human IgG1, kappa)
heavy 1: not shown
heavy 2: not shown
light: B1 light
notes: as for B1
B22: GpH7-A5/GpH7-B3 variant S337_03V/GpL16-k0 (antibody, human IgG1, kappa)
heavy 1: not shown
heavy 2: not shown
light: B1 light
notes: as for B1
B23: GpH7-A5/GpH7-B3 variant P331_07I/GpL16-k0 (antibody, human IgG1, kappa)
heavy 1: not shown
heavy 2: not shown
light: B1 light
notes: as for B1
B24: GpH7-A5/GpH7-B3 variant P331_03V/GpL16-k0 (antibody, human IgG1, kappa)
heavy 1: not shown
heavy 2: not shown
light: B1 light
notes: as for B1
B25: GpH7-A5/GpH7-B3 variant T335_01G/GpL16-k0 (antibody, human IgG1, kappa)
heavy 1: not shown
heavy 2: not shown
light: B1 light
notes: as for B1
B26: GpH7-A5/GpH7-B3 variant P331_12R/GpL16-k0 (antibody, human IgG1, kappa)
heavy 1: not shown
heavy 2: not shown
light: B1 light
notes: as for B1
B27: GpH7-A5/GpH7-B3 variant S337_01G/GpL16-k0 (antibody, human IgG1, kappa)
heavy 1: not shown
heavy 2: not shown
light: B1 light
notes: as for B1
B28: GpH7-A5/GpH7-B3 variant P331_10E/GpL16-k0 (antibody, human IgG1, kappa)
heavy 1: not shown
heavy 2: not shown
light: B1 light
notes: as for B1
B29: GpH7-A5/GpH7-B3 variant S337_12R/GpL16-k0 (antibody, human IgG1, kappa)
heavy 1: not shown
heavy 2: not shown
light: B1 light
notes: as for B1
B30: GpH7-A5/GpH7-B3 variant S337_02A/GpL16-k0 (antibody, human IgG1, kappa)
heavy 1: not shown
heavy 2: not shown
light: B1 light
notes: as for B1

Molecular target: T4, FcγRIIIa extracellular domain with C-terminal His tag (human, UniProt P08637 17-208)
T4 construct: extracellular domain; also called 3a; CD16
Experiment: SPR; % of GpH7-A5/GpH7-B3/GpL16-k0

T4 sequence (P08637 other isoform, or with tags, fused parts or gaps): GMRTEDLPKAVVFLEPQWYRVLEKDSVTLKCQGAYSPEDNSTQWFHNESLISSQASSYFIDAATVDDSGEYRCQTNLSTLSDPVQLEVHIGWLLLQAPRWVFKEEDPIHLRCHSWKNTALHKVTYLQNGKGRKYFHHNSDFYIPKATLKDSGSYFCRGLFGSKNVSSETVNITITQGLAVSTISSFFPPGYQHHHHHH

He/Con 3a [%]	Binder
140	B1
89.7	B2
66	B3
80.9	B4
94.4	B5
73.9	B6
67.8	B7
97.8	B8
71.9	B9
68.4	B10
71.6	B11
102	B12
96.9	B13
70.7	B14
140	B15
67.1	B16
132	B17
74.9	B18
73.4	B19
61.8	B20
82.5	B21
87.1	B22
60.4	B23
66.9	B24
95.1	B25
64.8	B26
95.2	B27
68.7	B28
92.7	B29
92.4	B30

Molecular target: T5, FcγRIa extracellular domain with C-terminal His tag (human, UniProt P12314 16-292)
T5 construct: extracellular domain; also called 1a; CD64
Experiment: SPR; % of GpH7-A5/GpH7-B3/GpL16-k0

T5 sequence (P12314 other isoform, or with tags, fused parts or gaps): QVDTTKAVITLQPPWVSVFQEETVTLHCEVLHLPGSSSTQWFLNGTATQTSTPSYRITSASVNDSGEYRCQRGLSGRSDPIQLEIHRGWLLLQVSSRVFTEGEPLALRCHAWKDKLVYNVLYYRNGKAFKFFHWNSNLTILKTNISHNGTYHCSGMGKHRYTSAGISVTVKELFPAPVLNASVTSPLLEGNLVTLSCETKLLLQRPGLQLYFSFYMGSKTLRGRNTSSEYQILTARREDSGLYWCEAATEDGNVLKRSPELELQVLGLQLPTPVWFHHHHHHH

He/Con 1a [%]	Binder
99	B1
104	B2
105	B3
108	B4
103	B5
108	B6
102	B7
103	B8
107	B9
106	B10
109	B11
102	B12
102	B13
108	B14
100	B15
106	B16
99.9	B17
109	B18
105	B19
100	B20
105	B21
103	B22
106	B23
104	B24
108	B25
100	B26
103	B27
108	B28
103	B29
102	B30

Molecular target: T1, FcγRIIb extracellular domain with …
Experiment: SPR; % of GpH7-A5/GpH7-B3/GpL16-k0

He/Con 2b [%]	Binder
148	B1
106	B2
106	B3
107	B4
107	B5
94	B6
111	B7
117	B8
123	B9
113	B10
104	B11
124	B12
113	B13
122	B14
141	B15
110	B16
134	B17
127	B18
128	B19
93.9	B20
110	B21
108	B22
127	B23
132	B24
106	B25
85	B26
100	B27
128	B28
108	B29
106	B30

Molecular target: T2, FcγRIIa(H) extracellular domain with …
Experiment: SPR; % of GpH7-A5/GpH7-B3/GpL16-k0

He/Con 2aH [%]	Binder
114	B1
104	B2
85.9	B3
94	B4
105	B5
91.6	B6
86.5	B7
109	B8
85.8	B9
88.1	B10
93.6	B11
114	B12
106	B13
87.7	B14
116	B15
87.2	B16
112	B17
89	B18
87.5	B19
83.7	B20
93.9	B21
104	B22
80.1	B23
85.4	B24
107	B25
84.3	B26
98.7	B27
90.1	B28
105	B29
103	B30

Molecular target: T3, FcγRIIa(R) extracellular domain with …
Experiment: SPR; % of GpH7-A5/GpH7-B3/GpL16-k0

He/Con 2aR [%]	Binder
152	B1
107	B2
101	B3
104	B4
106	B5
96.1	B6
104	B7
114	B8
109	B9
105	B10
101	B11
117	B12
108	B13
110	B14
149	B15
104	B16
143	B17
112	B18
113	B19
94.6	B20
105	B21
108	B22
109	B23
114	B24
110	B25
88.7	B26
101	B27
112	B28
109	B29
107	B30
